From patent publication US11034762 (CENTIVAX, dated 2021) come the findings set out here.

Experiment [1] has as its target SARS-CoV-2 Receptor Binding Domain (RBD) protein (SARS-CoV-2, UniProt P0DTC2 319-541).
Experiment [2] concerns the target T1, MERS Receptor Binding Domain (RBD) protein (MERS virus, UniProt K9N5Q8 367-606).
T1 construct: also called Middle East Respiratory Syndrome (MERS) virus
T1 sequence: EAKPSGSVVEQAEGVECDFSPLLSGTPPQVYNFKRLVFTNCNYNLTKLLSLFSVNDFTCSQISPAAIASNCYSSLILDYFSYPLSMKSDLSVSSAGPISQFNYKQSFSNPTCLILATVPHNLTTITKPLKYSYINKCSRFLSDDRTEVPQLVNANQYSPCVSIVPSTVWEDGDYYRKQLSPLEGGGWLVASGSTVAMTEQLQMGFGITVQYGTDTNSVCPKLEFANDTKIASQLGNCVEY
The experiment in a line: SPR; clone listed as COV2 only at the 21st table, row 35, column 3.

The target of experiment [3] is T2, SARS-CoV-1 Receptor Binding Domain (RBD) protein (SARS-CoV-1, UniProt P59594 306-527).
T2 construct: also called SARS1
The description is as above.

Experiment [4] concerns the target T1, MERS Receptor Binding Domain (RBD) …. Briefly: SPR; clone listed as COV2 only at the 21st table, row 7, column 3. Background: SPR reads the build-up and loss of mass on a sensor chip optically.
In experiment [5] the target is T2, SARS-CoV-1 Receptor Binding Domain …. Described as above.
Experiment [6] deals with T1, MERS Receptor Binding Domain (RBD) …. Briefly: SPR; clone listed as COV2 only at the 21st table, row 27, column 3.
In experiment [7] the target is T2, SARS-CoV-1 Receptor Binding Domain …. The experiment is described as above.
Experiment [8] deals with T1, MERS Receptor Binding Domain (RBD) …. The experiment in a line: SPR; clone listed as COV2 only at the 21st table, row 8, column 3.
In experiment [9] the target is T2, SARS-CoV-1 Receptor Binding Domain …. Described as above.
For experiment [10], the target named is T1, MERS Receptor Binding Domain (RBD) …. Briefly: SPR; clone listed as COV2 only at the 21st table, row 28, column 3.
Experiment [11] has as its target T2, SARS-CoV-1 Receptor Binding Domain …. The description is as above.
The target in experiment [12] is T1, MERS Receptor Binding Domain (RBD) …. Briefly: SPR; clone listed as COV2 only at the 21st table, row 34, column 3.
Experiment [13] deals with T2, SARS-CoV-1 Receptor Binding Domain …. Described as above.
The target in experiment [14] is T1, MERS Receptor Binding Domain (RBD) …. The experiment in a line: SPR; clone listed as COV2 only at the 21st table, row 33, column 3.
The target in experiment [15] is T2, SARS-CoV-1 Receptor Binding Domain …. Described as above.
The target in experiment [16] is T1, MERS Receptor Binding Domain (RBD) …. The experiment in a line: SPR; clone listed as COV2 only at the 21st table, row 32, column 3.
Experiment [17] addresses T2, SARS-CoV-1 Receptor Binding Domain …. The description is as above.
In experiment [18] the target is T1, MERS Receptor Binding Domain (RBD) …. The experiment in a line: SPR; clone listed as COV2 only at the 21st table, row 26, column 3.
Experiment [19] deals with T2, SARS-CoV-1 Receptor Binding Domain …. The description is as above.
Experiment [20] concerns the target T1, MERS Receptor Binding Domain (RBD) …. The experiment in a line: SPR; clone listed as COV2 only at the 21st table, row 25, column 3.
Experiment [21] deals with T2, SARS-CoV-1 Receptor Binding Domain …. Described as above.
In experiment [22] the target is T1, MERS Receptor Binding Domain (RBD) …. Briefly: SPR; clone listed as COV2 only at the 21st table, row 30, column 3.
The target in experiment [23] is T2, SARS-CoV-1 Receptor Binding Domain …. Described as above.
Experiment [24] has as its target T1, MERS Receptor Binding Domain (RBD) …. Briefly: SPR; clone listed as COV2 only at the 21st table, row 29, column 3.
Experiment [25] concerns the target T2, SARS-CoV-1 Receptor Binding Domain …. The experiment is described as above.

B1: COVID19_P21_F08 (scFv, V domains shown)
VH: QVQLVQSGAEVKKPGSSVKVSCKASGGTFSTYAFNWVRQAPGQGLEWMGVINTGGGSVTYAQKFQGRVTITADESTSTAYMELSSLRSEDTAVYYCAGGSGISTPGAVWGQGTLVTVSS
VL: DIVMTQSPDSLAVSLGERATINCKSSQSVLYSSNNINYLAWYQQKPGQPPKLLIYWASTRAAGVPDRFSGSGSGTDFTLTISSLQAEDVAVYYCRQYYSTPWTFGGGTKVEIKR
The Kd is the constant that tells how readily two partners part at equilibrium. A low value points to a tighter complex. A word on the koff: it is a measure of how fast the partners let go of each other. What is called kon is the rate constant with which the complex forms. Low values mean slower complex formation, high ones faster complex formation. In [1], B1 displayed a Kd of 16.3 nM, an off-rate (koff) of 0.000893 s⁻¹ and an on-rate (kon) of 54900 M⁻¹ s⁻¹. Besides, in [2], the binding result is “no binding (tested: up to 300 nM)”. Further, in experiment [3], the binding result was “no binding (tested: up to 300 nM)”.

B2: COVID19_P22_E06 (scFv, V domains shown)
VH: QVQLVQSGAEVKKPGSSVKVSCKASGGGFITYWIGWVRQAPGQGLEWMGIIYPGDSETRYSQKFQGRVTITADESTSTAYMELSSLRSEDTAVYYCAGGSGISSDMDVWGQGTLVTVSS
VL: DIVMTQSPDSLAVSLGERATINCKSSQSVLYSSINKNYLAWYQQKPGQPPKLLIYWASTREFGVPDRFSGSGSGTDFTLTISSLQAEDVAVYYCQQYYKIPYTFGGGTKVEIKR
In experiment [1], B2 gave an equilibrium dissociation constant (Kd) of 42.7 nM, a dissociation rate constant (koff) of 0.0057 s⁻¹ and an association rate constant (kon) of 130000 M⁻¹ s⁻¹. Besides, the binding result in [4] is reported as “no binding (tested: up to 300 nM)”. Also, in experiment [5], the binding result was “no binding (tested: up to 300 nM)”.

B3: COVID19_P21_F11 (scFv, V domains shown)
VH: QVQLVQSGAEVKKPGSSVKVSCKASGGTFSSYAISWVRQAPGQGLEWMGIIYPGDSTARYSQKFQGRVTITADESTSTAYMELSSLRSEDTAVYYCAGGSGISTLYDVWGQGTLVTVSS
VL: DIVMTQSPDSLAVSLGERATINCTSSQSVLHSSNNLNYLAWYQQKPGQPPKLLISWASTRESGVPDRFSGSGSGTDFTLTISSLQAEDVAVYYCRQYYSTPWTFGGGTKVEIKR
Take B3: in [1], the Kd was not above 1.1 nM, the off-rate (koff) is not above 5.7e-05 s⁻¹ and the on-rate constant (kon) stood at 52300 M⁻¹ s⁻¹. The binding result in [6] was “no binding (tested: up to 300 nM)”. Further, the binding result in experiment [7] is “no binding (tested: up to 300 nM)”.

B4: COVID19_P22_G12 (scFv, V domains shown)
VH: QVQLVQSGAEVKKPGSSVKVSCKASGGGFITYWIGWVRQAPGQGLEWMGIIYPGDSETRYSQKFQGRVTITADESTSTAYMELSSLRSEDTAVYYCAGGSGISTPMDVWGQGTLVTVSS
VL: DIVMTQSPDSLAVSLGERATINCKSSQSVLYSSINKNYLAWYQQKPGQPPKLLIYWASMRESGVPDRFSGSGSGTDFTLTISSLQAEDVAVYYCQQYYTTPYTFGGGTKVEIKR
In experiment [1], B4 came in with a Kd of 38.3 nM, a koff of 0.016 s⁻¹ and a kon of 410000 M⁻¹ s⁻¹. Further, the binding result in experiment [8] is “no binding (tested: up to 300 nM)”. Further, in [9], the binding result is “no binding (tested: up to 300 nM)”.

B5: COVID19_P09_G02 (scFv, V domains shown)
VH: QVQLVQSGAEVKKPGSSVKVSCKASGGTFSSYAISWVRQAPGQGLEWMGIIYPGDSTTNYSQKFQGRVTITADESTSTAYMELSSLRSEDTAVYYCAGHWGISTPMDVWGQGTLVTVSS
VL: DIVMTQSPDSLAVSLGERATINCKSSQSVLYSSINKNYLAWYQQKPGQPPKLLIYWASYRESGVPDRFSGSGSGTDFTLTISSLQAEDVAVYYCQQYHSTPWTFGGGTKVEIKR
Consider B5, for which the binding result in [10] is “no binding (tested: up to 300 nM)”. Also, the binding result in experiment [11] is “no binding (tested: up to 300 nM)”. Besides, in [1], binding was put at a Kd of 1.92 nM, the off-rate constant (koff) worked out at 0.000262 s⁻¹ and the on-rate (kon) was 136000 M⁻¹ s⁻¹.

B6: COVID19_P21_B08 (scFv, V domains shown)
VH: QVQLVQSGAEVKKPGSSVKVSCKASGGTFSSYAISWVRQAPGQGLEWMGVINTGGGSVTYAQKFQGRVTITADESTSTAYMELSSLRSEDTAVYYCAGHWGISTPMDVWGQGTLVTVSS
VL: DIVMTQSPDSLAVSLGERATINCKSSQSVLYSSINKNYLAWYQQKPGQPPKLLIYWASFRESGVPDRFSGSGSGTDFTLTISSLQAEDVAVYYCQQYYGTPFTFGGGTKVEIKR
In experiment [1], B6 showed an equilibrium dissociation constant (Kd) of 2.95 nM, an off-rate constant (koff) of 0.000344 s⁻¹ and a kon of 117000 M⁻¹ s⁻¹. Also, the binding result in [12] is “no binding (tested: up to 300 nM)”. The binding result in experiment [13] is on record as “no binding (tested: up to 300 nM)”.

B7: COVID19_P21_A12 (scFv, V domains shown)
VH: QVQLVQSGAEVKKPGSSVKVSCKASGGTFSSYAISWVRQAPGQGLEWMGSVIPVFGRPNYAQKFQGRVTITADESTSTAYMELSSLRSEDTAVYYCAGEWGISTPMDVWGQGTLVTVSS
VL: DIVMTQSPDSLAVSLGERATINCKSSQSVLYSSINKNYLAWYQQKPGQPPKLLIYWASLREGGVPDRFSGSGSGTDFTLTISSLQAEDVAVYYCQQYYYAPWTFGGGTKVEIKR
Regarding B7, in experiment [14], the binding result was “no binding (tested: up to 300 nM)”. Moreover, in experiment [15], the binding result is given as “no binding (tested: up to 300 nM)”. In experiment [1], this molecule displayed a Kd of 6.01 nM, an off-rate (koff) of 0.000911 s⁻¹ and a kon of 152000 M⁻¹ s⁻¹.

B8: COVID19_P21_F04 (scFv, V domains shown)
VH: QVQLVQSGAEVKKPGSSVKVSCKASGGTFSSYAISWVRQAPGQGLEWMGQINPSGDSTRYAQKFQGRVTITADESTSTAYMELSSLRSEDTAVYYCAGGSGISTPMDVWGQGTLVTVSS
VL: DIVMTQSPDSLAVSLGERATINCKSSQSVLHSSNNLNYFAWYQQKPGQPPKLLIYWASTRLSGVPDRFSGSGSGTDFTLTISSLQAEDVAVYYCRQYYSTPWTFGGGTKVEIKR
On to B8, for which, in experiment [1], the Kd came out at 8.81 nM, the off-rate (koff) was determined as 0.00037 s⁻¹ and the association rate constant (kon) worked out at 41900 M⁻¹ s⁻¹. Moreover, the binding result in [16] was “no binding (tested: up to 300 nM)”. Besides, in [17], the binding result is “no binding (tested: up to 300 nM)”.

B9: COVID19_P09_C09 (scFv, V domains shown)
VH: QVQLVQSGAEVKKPGSSVKVSCKASGGTFSSYAISWVRQAPGQGLEWMGIIDPSGGSTSYAQQFQGRVTITADESTSTAYMELSSLRSEDTAVYYCAGGSGISTPMDVWGQGTLVTVSS
VL: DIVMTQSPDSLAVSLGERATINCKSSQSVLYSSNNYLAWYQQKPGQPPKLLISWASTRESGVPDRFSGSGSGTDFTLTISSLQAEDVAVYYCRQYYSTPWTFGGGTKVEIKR
On to B9, for which, in experiment [1], binding was characterised by a dissociation constant (Kd) of 0.99 nM, the off-rate constant (koff) was found to be 0.000261 s⁻¹ and the on-rate constant (kon) was 264000 M⁻¹ s⁻¹. In addition, in experiment [18], the binding result is reported as “no binding (tested: up to 300 nM)”. Moreover, the binding result in experiment [19] is given as “no binding (tested: up to 300 nM)”.

B10: COVID19_P09_B07 (scFv, V domains shown)
VH: QVQLVQSGAEVKKPGSSVKVSCKASGGTFSSYAISWVRQAPGQGLEWMGGIIPTLGTANYAQKFQGRVTITADESTSTAYMELSSLRSEDTAVYYCAGSWGISTPMDVWGQGTLVTVSS
VL: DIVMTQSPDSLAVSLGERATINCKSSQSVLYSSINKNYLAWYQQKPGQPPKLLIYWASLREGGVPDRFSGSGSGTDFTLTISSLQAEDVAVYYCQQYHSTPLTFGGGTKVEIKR
Regarding B10, in experiment [20], the binding result is “no binding (tested: up to 300 nM)”. Also, in experiment [21], the binding result was “no binding (tested: up to 300 nM)”. In [1], this molecule yielded a Kd of 3.66 nM, a koff of 0.000533 s⁻¹ and a kon of 146000 M⁻¹ s⁻¹.

B11: COVID19_P10_B06 (scFv, V domains shown)
VH: QVQLVQSGAEVKKPGSSVKVSCKASGGTFSSYAISWVRQAPGQGLEWMGIIYPGDSTTRYSQKFQGRVTITADESTSTAYMELSSLRSEDTAVYYCYSGSGISTPMDVWGQGTLVTVSS
VL: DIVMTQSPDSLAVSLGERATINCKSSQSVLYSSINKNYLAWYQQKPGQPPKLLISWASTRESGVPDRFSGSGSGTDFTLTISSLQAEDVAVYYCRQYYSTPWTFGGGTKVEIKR
For B11, the binding result in experiment [22] was “no binding (tested: up to 300 nM)”. The binding result in experiment [23] is on record as “no binding (tested: up to 300 nM)”. In experiment [1], this molecule registered a Kd of 0.29 nM, a koff of 5.7e-05 s⁻¹ and a kon of 200000 M⁻¹ s⁻¹.

B12: COVID19_P09_E05 (scFv, V domains shown)
VH: QVQLVQSGAEVKKPGSSVKVSCKASGGTFSSYAISWVRQAPGQGLEWMGIIYPGDSTTRYSQKFQGRVTITADESTSTAYMELSSLRSEDTAVYYCYSGSGISTPMDVWGQGTLVTVSS
VL: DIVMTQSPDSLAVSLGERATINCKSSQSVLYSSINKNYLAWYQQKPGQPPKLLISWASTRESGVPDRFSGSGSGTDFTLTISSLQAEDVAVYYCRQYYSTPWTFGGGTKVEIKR
B12: in experiment [1], the Kd was 0.2 nM, the koff was determined as 5.7e-05 s⁻¹ and the kon was 305000 M⁻¹ s⁻¹. In addition, in experiment [24], the binding result is given as “no binding (tested: up to 300 nM)”. Besides, the binding result in [25] is listed as “no binding (tested: up to 300 nM)”.
